Positions count from the first letter of the chain named. Values belong to the binder of their own block, whether it stands above or below them.
How the values were obtained:
[1] = target: T1, hMuSK delta 1-2-3 (Fz) (human, UniProt O15146); assay: ELISA, hMuSK delta 1-2-3 (Fz) captured on anti-FLAG coat, antibody titrated, anti-human Fc HRP detection, OD450
T1 construct: truncated extracellular domain, captured by anti-FLAG
T1 sequence (truncated extracellular domain, looked up): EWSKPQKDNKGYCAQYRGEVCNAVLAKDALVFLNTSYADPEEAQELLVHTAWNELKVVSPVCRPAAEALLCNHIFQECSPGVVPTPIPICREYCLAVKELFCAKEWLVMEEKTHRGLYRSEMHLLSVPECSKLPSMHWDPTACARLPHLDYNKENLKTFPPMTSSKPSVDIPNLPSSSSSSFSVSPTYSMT
Method: (§1) For binding to MuSK domains—An ELISA plate was coated with 0.5 μg/ml of anti-FLAG (M2 clone, Sigma Cat. F3165) and incubated overnight at 4° C. Next, the plate was washed with PBS and blocked with 1×PBS 1% casein for two hours at RT. After washing the plate, human monomeric MuSK FLAG streptavidin (batch 27-6-2019) and truncated MuSK variants (batch 3-9-2019) at 1 μg/ml in PBS where incubated for one hour at RT. After washing the plate, antibodies were diluted in blocking buffer and added to the plate. After a one hour incubation at RT, the plate was washed. Next, detecting antibody was added and incubated for one hour at RT (anti-human Fc HRP (1/5000) (clone 5A9, cat. No. Ab7499, ABCAM)) in blocking buffer. Lastly, the plate was washed with PBS and TMB was added and the reaction was stopped with 0.5 M H2SO4. OD 450 nm was determined by the Tecan Sunrise ELISA plate reader.
(§2) For the MuSK domain binding ELISA, binding of anti-MuSK antibodies to FLAG captured human monomeric MuSK and truncated variants was tested (FIG. 6). 3D9b, 3F6c, 3D10a, 4D3 and 3B5 bound only to full length MuSK, no binding was observed against the truncated MuSK variants. Therefore, we conclude that our antibodies bind to the Ig1 domain.

[2] = target: T2, Human MuSK (R&D Systems, cat. 10189-MK, histidine tag) (human, UniProt O15146 24-495); assay: SPR (Biacore), antibody captured on anti-hFc chip; 2.5 nM; dissociation pH 5.5
T2 construct: Bought protein; also called human monomeric MuSK-6xhis; not shown: histidine tag (6xhis)
T2 sequence: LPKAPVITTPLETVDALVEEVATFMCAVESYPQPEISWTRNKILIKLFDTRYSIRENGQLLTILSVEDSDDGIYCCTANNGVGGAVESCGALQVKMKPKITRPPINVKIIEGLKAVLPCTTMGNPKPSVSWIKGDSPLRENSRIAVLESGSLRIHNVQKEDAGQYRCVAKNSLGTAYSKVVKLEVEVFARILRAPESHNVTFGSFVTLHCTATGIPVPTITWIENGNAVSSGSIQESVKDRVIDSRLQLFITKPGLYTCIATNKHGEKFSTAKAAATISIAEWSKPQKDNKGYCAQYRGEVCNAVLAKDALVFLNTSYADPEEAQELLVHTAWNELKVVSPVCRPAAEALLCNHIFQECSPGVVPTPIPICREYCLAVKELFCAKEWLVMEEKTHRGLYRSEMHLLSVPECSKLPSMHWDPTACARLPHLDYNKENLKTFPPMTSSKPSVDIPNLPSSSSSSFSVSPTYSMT
Description: In order to study pH dependent binding of our antibodies to MuSK, the Biacore was used with the same setup as described in the paragraph entitled “Binding affinity for mouse, human and rhesus monkey recombinant MuSK in Biacore”. 6. […] For the other antibodies there is no real difference observed between pH 7.4 and 5.5.

[3] = target: T3, hMuSK delta 1-2 (Ig3 Fz) (human, UniProt O15146); assay: ELISA, hMuSK delta 1-2 (Ig3 Fz) captured on anti-FLAG coat, antibody titrated, anti-human Fc HRP detection, OD450
T3 construct: truncated extracellular domain, captured by anti-FLAG
T3 sequence (truncated extracellular domain, looked up): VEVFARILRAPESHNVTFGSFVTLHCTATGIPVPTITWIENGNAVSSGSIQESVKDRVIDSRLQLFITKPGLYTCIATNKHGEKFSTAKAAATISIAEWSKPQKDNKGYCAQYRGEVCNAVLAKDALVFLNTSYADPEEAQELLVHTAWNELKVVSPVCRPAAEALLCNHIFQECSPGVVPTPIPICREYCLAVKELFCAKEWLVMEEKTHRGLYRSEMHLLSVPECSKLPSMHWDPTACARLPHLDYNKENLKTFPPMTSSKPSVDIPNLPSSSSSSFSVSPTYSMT
Method: as §1, §2

[4] = target: T2, Human MuSK (R&D Systems, cat. 10189-MK, …); assay: SPR (Biacore), MuSK-coated chip presaturated with 500 nM 3D9b (competitor)
Method: A chip was coated with ˜5000 RU of human MuSK (Lot nr DHUCO 11908A, batch nr 1089_MK). In a first experiment the saturating concentration of the pre-leads was determined. This is the concentration where the amplitude of a specific pre-lead doesn't increase anymore when additional pre-lead is injected on the immobilized MuSK.

B1: 3D10a (antibody, human IgG1, kappa, L234A L235A, V domains shown)
VH: EVQLVESGGGLVKPGGSLRLSCAASGFTFSASTMAWVRQAPGKGLEWVSSVSGDSHHIYYADSLKGRFTISRDNAKNSLYLQMNSLRAEDTAVYYCARERLLRLGVGFDSWGQGTLVTVSS
VL: DIQMTQSPSSLSASVGDRVTITCRASQRISGFVNWYQQKPGKAPKLLIYAASTLQSGVPSRFSGSGSGTDFTLTISSLQPEDFATYYCQQSYSPLYTFGQGTKLEIKR
binding result [1]: no binding (tested: log(conc) 4.2 (about 16000 ng/ml))
koff [2]: 9e-05 s⁻¹
binding result [3]: no binding (tested: log(conc) 4.2 (about 16000 ng/ml))
amplitude of prelead after presaturating MuSK (RU) [4]: -1 RU
extra amplitude (%) [4]: -0.5%
normalized extra amplitude (%) [4]: -1.5%

B2: 4D3 (antibody, human IgG1, kappa, L234A L235A, V domains shown)
VH: B1 VH with A31S, S32Y, A35T, V51I, G53S, D54G, S55G, H57Y, A61T, S110F
VL: B1 VL with R28S, F32Y, V33L, P94A
binding result [1]: no binding (tested: log(conc) 4.2 (about 16000 ng/ml))
koff [2]: 0.00014 s⁻¹
binding result [3]: no binding (tested: log(conc) 4.2 (about 16000 ng/ml))
amplitude of prelead after presaturating MuSK (RU) [4]: -3 RU
extra amplitude (%) [4]: -1.6%
normalized extra amplitude (%) [4]: -2.6%

More lines, main results first:

koff [2]: 4e-05 s⁻¹
amplitude of prelead after presaturating MuSK (RU) [4]: 40 RU
extra amplitude (%) [4]: 1%
normalized extra amplitude (%) [4]: 0%
B3: 3D9b (antibody, human IgG1, kappa, L234A L235A, V domains shown)
VH: EVQLVESGGGLVKPGGSLRLSCAASGFTFSTYTMHWVRQAPGKGLEWVSSISSRSAYKYYADSVKGRFTISRDNAKNSLYLQMNSLRAEDTAVYYCARDFFQLGPPRFDSWGQGTLVTVSS
VL: B1 VL with G31S, V33L, A50G, T53N, L95S
binding result [1]: no binding (tested: log(conc) 4.2 (about 16000 ng/ml))
binding result [3]: no binding (tested: log(conc) 4.2 (about 16000 ng/ml))

koff [2]: 0.0002 s⁻¹
amplitude of prelead after presaturating MuSK (RU) [4]: -5 RU
extra amplitude (%) [4]: -2.1%
normalized extra amplitude (%) [4]: -3.1%
B4: 3F6c (antibody, human IgG1, kappa, L234A L235A, V domains shown)
VH: EVQLVESGGGLVKPGGSLRLSCAASGFTFSSYTMDWVRQAPGKGLEWVSSIGSNGDYIYYADSVRGRFTISRDNAKNSLYLQMNSLRAEDTAVYYCARGQLAVAGTHFDYWGQGTLVTVSS
VL: B1 VL with R28K, I29V, S30N, G31K, F32Y, Y96S
binding result [1]: no binding (tested: log(conc) 4.2 (about 16000 ng/ml))
binding result [3]: no binding (tested: log(conc) 4.2 (about 16000 ng/ml))
